Like-named read-outs stand apart in the source and are kept apart here.
B1: 1A11 rat anti-DLL4 monoclonal antibody (antibody, rat IgG1, V domains shown)
VH: EVQLVESGGGLVQPGRSMKLSCAASGFTFRNFPMAWVRQAPTRGLEWVATISSSDGTTYYRDSVKGRFTISRDNAKSTLYLQVNSLRSEDTATYYCSRGYYNSPFAYWGQGTLVTVSS
VL: DIQMTQSPASLSASLGETVTIECRASEDIYSNLAWYQQKPGNSPQLLIFDTNNLADGVPSRFSGSGSGTQSSLKINSLQSEDVASYFCQQYNNYPPTFGGGTKLELKR
notes: rat IgG1/K hybridoma mAb; also called MC13-1A11.2E1; 1A11 (rat mAb)
B2: 38H12 rat anti-DLL4 monoclonal antibody (antibody, rat IgG2a, V domains shown)
VH: EVQLVESGGGLVQPGRSLKLSCAASGFTFSNYGMYWIRQAPTKGLQWVAFISHGGGITYYRDSVKGRFTISRDNAKSTLYLQMDSLRSEDTATYHCAALNWELGIDYWGQGVMVTVSS
VL: DIQMTQSPASLSASLGETISIECRASEDIYSNLAWYQKKSGKSPQLLIYAANRLQDGVPSRFSGSGSGTQYSLKISGMQPEDEGDYFCLQGSKFPLTFGSGTKLEIKR
notes: rat IgG2a/k hybridoma mAb; also called MC10-38H12.2G8; 38H12 rat mAb
B3: 37D10 rat anti-DLL4 monoclonal antibody (antibody, rat IgG2a, V domains shown)
VH: AVQLVESGGGLVQPKESLKISCAASGFTFSNAAMYWVRLAPGKGLEWVARIRTKPNNYATYYAESVKGRFTISRDDSKSMVYVQMDNLKTEDTAMYYCTAAPWRDSYAHVYWGQGVMVTVSS
VL: DIQMTQSPPVLSASVGDRVTLSCKASQNIHKNLDWYQQKHGDAPKLLIYYTDHLQTGVPSRFSGSGSATDYTLTISSLQPEDVATYYCYQYNGGPFTFGSGTKLEIKR
notes: rat IgG2a/k hybridoma mAb; also called 40B10; 37D10 = 40B10

How the values were obtained:
[1] = target: T1, mouse DLL4 extracellular domain (mouse, UniProt Q9JI71 27-532); test: competition ELISA: biotin-DLL4 ECD to coated huNotch-1
T1 construct: extracellular domain; also called muDLL4 ECD; murine DLL4
Description: (§1) Plates were then washed 3 times with wash buffer (PBS, 0.05% Tween-20) and blocked with 200 μl/well blocking buffer (D-PBS, 1% BSA, 1 mM CaCl₂, 0.05% Tween-20) for 1 hour at 25° C. While blocking, biotin labeled DLL4 extracellular domain (14 nM) was mixed with antibody (30 pM-66 nM, 3-fold serial dilution in blocking buffer) for 1 hour at 25° C. with shaking. Assay plates were washed after blocking, and incubated with DLL4/antibody mixtures (100 μl/well, 1 hour at 25° C. with shaking). Plates were washed again and 100 μl/well streptavidin conjugated with HRP (Fitzgerald #65R-S104PHRPx, diluted 1:5,000 in blocking buffer) was added for 1 hour at 25° C. with shaking. After a final wash, plates were developed using 100 μl/well substrate (TMB Sigma #T8665), and the reaction was stopped using 100 μl/well 1N HCl, and the absorbance was read at 450 nm. Data were analyzed using Graphpad Prism software and IC₅₀ values were reported as the concentration of antibody to achieve 50% reduction of DLL4 bound to Notch1.
(§2) Further characterization determined 37D10 and 40B10 were identical rat mAbs.

[2] = target: T2, human DLL4 extracellular domain (human, UniProt Q9NR61 27-529); test: as above
T2 construct: purified recombinant ECD; biotin-labelled or 6xHis-tagged depending on the assay; also called huDLL4 ECD; hu DLL4 ECD
Description: as §1, §2

[3] = target: T1, mouse DLL4 extracellular domain; test: binding ELISA, DLL4 ECD
[4] = target: T2, human DLL4 extracellular domain; test: binding ELISA, DLL4 ECD
[5] = target: T3, cynomolgus monkey DLL4 extracellular domain (cynomolgus monkey); test: SPR (Biacore)
T3 construct: extracellular domain; also called cynoDLL4 ECD; Cyno DLL4
Description: (§3) The BIACORE® surface plasmon resonance assay (Biacore, Inc., Piscataway, N.J., US) determines the affinity of antibodies with kinetic measurements of on-rate and off-rate constants. Binding of DLL4 antibodies to a purified recombinant DLL4 extracellular domain (ECD) was determined by surface plasmon resonance-based measurements with a Biacore® instrument (either a Biacore 2000, Biacore 3000, or Biacore T100; GE Healthcare, Piscataway, N.J., US) using running buffer HBS-EPB (10 mM HEPES [pH 7.4], 150 mM NaCl, 3 mM EDTA, 0.1 mg/ml BSA and 0.005% surfactant P20) at 25° C. For example, approximately 9000 RU of goat anti-human Fc specific polyclonal antibody (Thermo Fisher Scientific Inc., Rockford, Ill., US) diluted in 10 mM sodium acetate (pH 4.5) is directly immobilized across a CMS research grade biosensor chip using a standard amine coupling kit according to manufacturer's instructions and procedures at 25 μg/ml. Unreacted moieties on the biosensor surface were blocked with ethanolamine. For kinetic analysis, rate equations derived from the 1:1 Langmuir binding model were fitted simultaneously to multiple antigen injections (using global fit analysis) with the use of Scrubber 2 (BioLogic Software), Biacore Biaevaluation 4.0.1 software or Biacore T100 Evaluation software. Purified antibodies were diluted in running buffer for capture across goat anti-human Fc reaction surfaces. Antibodies to be captured as a ligand (1 μg/ml) were injected over reaction matrices at a flow rate of 10 μl/min. During the assay, all measurements were referenced against the capture surface alone (i.e., with no captured anti-DLL4 antibody). […] The equilibrium dissociation constant KD (M) of the reaction between antibodies and the target antigen was then calculated from the kinetic rate constants by the following formula: KD=Koff/Kₒₙ. Binding was recorded as a function of time and kinetic rate constants were calculated.

[6] = target: T2, human DLL4 extracellular domain; test: SPR (Biacore)
Description: as §3

[7] = target: T4, human DLL4, full length, on cells (human, UniProt Q9NR61 27-685); test: FACS, DLL4 cells
T4 construct: also called huDLL4 cells; human DLL4-293G
Description: (§4) Stable cell lines overexpressing cell-surface DLL4 were harvested from tissue culture flasks, washed four times and resuspended in phosphate buffered saline (PBS) containing 1% bovine serum albumin and 1 mM CaCl₂ (FACS buffer). 1.5×10⁵ cells were incubated with antibodies at various concentrations in FACS buffer for 60 minutes on ice. […] Following an incubation on ice (4° C., 60 minutes), cells were washed three times and resuspended in FACS buffer. Fluorescence was measured using a Becton Dickinson FACSCalibur-HTS (Becton Dickinson, San Jose, Calif., US). Data were analyzed using Graphpad Prism software and EC₅₀ values were reported as the concentration of antibody to achieve 50% of maximal DLL4 antibodies binding to DLL4 expressing cells. […]

[8] = target: T5, mouse DLL4 on cells (mouse, UniProt Q9JI71 27-686); test: FACS, DLL4 cells
T5 construct: whole, on cells; also called mouse DLL4-293G; mu DLL4 cells
Description: as §4

[9] = target: T1, mouse DLL4 extracellular domain; test: SPR (Biacore)
In short: (§5)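 Purified anti-DLL4 antibodies (1 μg/ml) captured on immobilized goat anti-human Fc, with DLL4 ECD injected as analyte; HBS-EPB running buffer (pH 7.4), 25° C, referenced against capture-only surface. On/off rates from global 1:1 Langmuir fit; KD = Koff/Kon.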

[10] = target: T6, rat DLL4 extracellular domain (rat, UniProt D3ZHH1 28-530); test: SPR (Biacore)
T6 construct: extracellular domain; also called ratDLL4 ECD
In short: as §5

[11] = target: T2, human DLL4 extracellular domain; test: SPR (Biacore); remark: listed apart in the source
[12] = target: T1, mouse DLL4 extracellular domain; test: competition ELISA vs Notch-1
[13] = target: T2, human DLL4 extracellular domain; test: competition ELISA vs Notch-1
[14] = target: T4, human DLL4, full length, on cells; test: competition FACS: huNotch-1-biotin to DLL4 cells
Description: (§6) Notch blocking assay: Briefly, stable cell lines overexpressing cell-surface DLL4 were harvested from tissue culture flasks and re-suspended in phosphate buffered saline (PBS) containing 1% bovine serum albumin and 1 mM CaCl₂ (FACS buffer). HEK293G-DLL4 cells were dispensed into 96-well plate (v-bottom) at 1.5×10⁵ cells/well in FACS buffer. After spinning down cells and discarding the supernatant, 50 μL of purified IgG with appropriate dilution were added to each well, and incubated on ice at 4° C. for 60 minutes, followed by addition of 50 μL/well of Notch1-biotin at 0.2 μg/mL for human DLL4-293G or 2.0 μg/mL for mouse DLL4-293G (1.0 or 0.1 μg/mL final) for an additional 1 hour incubation ice at 4° C. After washing the cells two times with FACS buffer, 50 μL of R-phycoerythrin-conjugated streptavidin (1:150 dilution in FACS buffer) (Jackson ImmunoResearch, West Grove, Pa., Cat.#016-110-084) were added. Following an incubation on ice (4° C., 60 minutes), cells were washed three times and resuspended in FACS buffer. Fluorescence was measured using a Becton Dickinson FACSCalibur-HTS (Becton Dickinson, San Jose, Calif.). Data were analyzed using Graphpad Prism software, and IC₅₀ values were reported as the concentration of antibody to achieve 50% reduction of Notch1 bound to DLL4 expressing cells. […]

[15] = target: T5, mouse DLL4 on cells; test: competition FACS: huNotch-1-biotin to DLL4 cells
Description: as §6

[16] = target: T4, human DLL4, full length, on cells; test: cell-based or functional assay
[17] = target: T5, mouse DLL4 on cells; test: FACS on cells expressing mouse DLL4

T2 sequence (Q9NR61 27-529 limits assumed): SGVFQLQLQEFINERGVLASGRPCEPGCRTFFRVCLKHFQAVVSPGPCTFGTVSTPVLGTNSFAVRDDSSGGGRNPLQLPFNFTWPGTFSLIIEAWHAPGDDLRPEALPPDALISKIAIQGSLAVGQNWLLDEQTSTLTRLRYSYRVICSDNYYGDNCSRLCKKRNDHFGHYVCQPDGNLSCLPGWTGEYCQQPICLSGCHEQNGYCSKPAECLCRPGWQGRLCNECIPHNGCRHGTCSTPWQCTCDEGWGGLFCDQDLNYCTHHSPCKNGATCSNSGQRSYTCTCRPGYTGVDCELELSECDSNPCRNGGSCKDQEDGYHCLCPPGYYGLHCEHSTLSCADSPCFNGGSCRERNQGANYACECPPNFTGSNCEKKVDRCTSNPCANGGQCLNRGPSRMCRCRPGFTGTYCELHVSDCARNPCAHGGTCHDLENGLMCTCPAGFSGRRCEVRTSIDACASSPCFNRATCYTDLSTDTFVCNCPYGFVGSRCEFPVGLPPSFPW
T1 sequence (Q9JI71 27-532): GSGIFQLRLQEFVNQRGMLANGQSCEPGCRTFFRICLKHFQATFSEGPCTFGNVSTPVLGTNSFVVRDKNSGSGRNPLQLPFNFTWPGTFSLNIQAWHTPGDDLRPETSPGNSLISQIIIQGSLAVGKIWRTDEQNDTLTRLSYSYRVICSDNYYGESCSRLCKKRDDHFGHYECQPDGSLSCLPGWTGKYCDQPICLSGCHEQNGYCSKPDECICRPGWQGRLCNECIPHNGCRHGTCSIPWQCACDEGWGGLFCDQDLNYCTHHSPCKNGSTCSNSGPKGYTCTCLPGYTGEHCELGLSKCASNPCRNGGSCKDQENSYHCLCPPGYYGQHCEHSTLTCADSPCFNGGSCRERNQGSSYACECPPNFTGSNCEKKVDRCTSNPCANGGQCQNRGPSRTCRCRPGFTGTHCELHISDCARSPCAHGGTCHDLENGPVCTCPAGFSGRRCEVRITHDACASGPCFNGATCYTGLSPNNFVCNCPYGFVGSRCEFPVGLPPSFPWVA
T4 sequence (Q9NR61 27-685 limits assumed): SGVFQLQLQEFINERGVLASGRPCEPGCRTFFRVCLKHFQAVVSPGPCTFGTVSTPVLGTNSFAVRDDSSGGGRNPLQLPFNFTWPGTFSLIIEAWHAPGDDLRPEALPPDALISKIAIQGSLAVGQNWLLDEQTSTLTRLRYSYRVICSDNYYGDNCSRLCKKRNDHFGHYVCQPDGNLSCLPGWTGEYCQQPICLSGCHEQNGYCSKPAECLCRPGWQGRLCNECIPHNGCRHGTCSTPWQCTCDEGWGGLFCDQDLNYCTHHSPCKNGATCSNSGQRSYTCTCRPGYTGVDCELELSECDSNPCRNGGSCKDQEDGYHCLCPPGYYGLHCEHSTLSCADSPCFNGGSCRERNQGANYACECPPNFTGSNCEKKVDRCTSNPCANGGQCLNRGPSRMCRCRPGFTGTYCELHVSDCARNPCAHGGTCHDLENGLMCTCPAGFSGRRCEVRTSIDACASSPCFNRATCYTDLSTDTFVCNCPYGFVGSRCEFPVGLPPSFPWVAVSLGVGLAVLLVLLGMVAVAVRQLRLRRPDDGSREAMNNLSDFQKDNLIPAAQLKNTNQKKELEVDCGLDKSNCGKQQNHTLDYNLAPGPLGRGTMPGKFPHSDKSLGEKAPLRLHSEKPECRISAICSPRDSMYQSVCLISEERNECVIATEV
T5 sequence (Q9JI71 27-686): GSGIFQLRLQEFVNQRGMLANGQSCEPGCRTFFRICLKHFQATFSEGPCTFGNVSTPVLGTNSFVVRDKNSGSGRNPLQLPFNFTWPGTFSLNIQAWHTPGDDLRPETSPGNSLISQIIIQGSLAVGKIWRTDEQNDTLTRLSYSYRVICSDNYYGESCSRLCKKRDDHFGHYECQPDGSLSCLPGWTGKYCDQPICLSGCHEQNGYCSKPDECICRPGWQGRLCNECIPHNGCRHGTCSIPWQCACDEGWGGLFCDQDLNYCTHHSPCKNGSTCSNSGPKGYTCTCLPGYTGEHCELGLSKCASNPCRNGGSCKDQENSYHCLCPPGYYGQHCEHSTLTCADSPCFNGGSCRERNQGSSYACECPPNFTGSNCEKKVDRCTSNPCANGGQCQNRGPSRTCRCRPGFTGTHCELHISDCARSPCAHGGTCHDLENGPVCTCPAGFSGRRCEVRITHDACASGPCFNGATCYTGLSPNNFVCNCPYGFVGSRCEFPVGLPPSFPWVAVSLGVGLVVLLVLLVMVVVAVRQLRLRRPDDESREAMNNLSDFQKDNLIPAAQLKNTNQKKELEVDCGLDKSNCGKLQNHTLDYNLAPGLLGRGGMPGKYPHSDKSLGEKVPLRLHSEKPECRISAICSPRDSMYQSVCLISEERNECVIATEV
T6 sequence (D3ZHH1 28-530): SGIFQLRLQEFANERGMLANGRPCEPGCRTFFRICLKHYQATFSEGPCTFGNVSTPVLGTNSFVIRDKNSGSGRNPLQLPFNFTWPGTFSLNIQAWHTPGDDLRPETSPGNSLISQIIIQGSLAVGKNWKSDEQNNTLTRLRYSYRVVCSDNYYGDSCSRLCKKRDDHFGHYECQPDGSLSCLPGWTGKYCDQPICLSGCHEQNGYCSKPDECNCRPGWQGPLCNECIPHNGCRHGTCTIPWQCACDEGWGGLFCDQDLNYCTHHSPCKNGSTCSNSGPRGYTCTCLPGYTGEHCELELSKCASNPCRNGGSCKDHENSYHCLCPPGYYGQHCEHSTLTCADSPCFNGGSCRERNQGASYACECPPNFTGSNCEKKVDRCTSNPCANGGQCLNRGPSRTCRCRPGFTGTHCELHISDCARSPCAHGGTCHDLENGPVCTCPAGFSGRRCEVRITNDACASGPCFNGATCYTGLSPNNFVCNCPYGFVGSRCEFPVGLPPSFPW

Row | Binder | IC50 [1] | IC50 [2] | EC50 [3] | EC50 [4] | Kd [5] | koff [5] | kon [5] | Kd [6] | koff [6] | kon [6] | EC50 [7] | EC50 [8] | Kd [9] | koff [9] | kon [9] | binding result [10] | IC50 [14] | IC50 [15] | Notch activation Inhibition (IC50, nM), huDLL4 cell/Notch reporter cells [16] | also measured
1 | B1 | 0.79 nM | 0.78 nM | 0.11 nM | 0.06 nM | 8.1 nM | 0.00093 s⁻¹ | 110000 M⁻¹ s⁻¹ | 5.8 nM | 0.0011 s⁻¹ | 190000 M⁻¹ s⁻¹ | 34.8 nM | 0.8 nM | 23 nM | 0.0029 s⁻¹ | 130000 M⁻¹ s⁻¹ | no binding | 8.4 nM | 0.8 nM | 2.9 nM | Kd [11]: 6 nM; IC50 [12]: 1.1 nM; IC50 [13]: 0.5 nM
2 | B2 |  | 3.63 nM |  | 0.06 nM | 0.4 nM | 9.8e-05 s⁻¹ | 260000 M⁻¹ s⁻¹ | 0.3 nM | 0.00011 s⁻¹ | 400000 M⁻¹ s⁻¹ | 1.2 nM |  |  |  |  | no binding | 1.7 nM |  | 0.5 nM | binding result [3]: no binding; binding result [17]: no binding
3 | B3 | 3.36 nM | 5.39 nM | 0.14 nM | 0.12 nM | < 617 nM |  | 40000 M⁻¹ s⁻¹ | 484 nM | 0.07 s⁻¹ | 140000 M⁻¹ s⁻¹ | 2.3 nM | 0.7 nM | 135 nM | 0.0135 s⁻¹ | 100000 M⁻¹ s⁻¹ |  | 5.5 nM | 3.8 nM |  | 
